Source: patent US9494585B2, “Tools for the identification of Lingo-1, Lingo-2, Lingo-3 and Lingo-4 ligands, and uses thereof” (CENTRE NATIONAL DE LA RECHERCHE SCIENTIFIQUE-CNRS, priority 2010, dated 2016)

Target: T1, Lingo-1-RLuc/Lingo-1-YFP dimer (Homo sapiens, UniProt Q96FE5)
T1 construct: expressed in transfected cells; host or cells: HEK-293 (transient calcium phosphate transfection)
Experiment: BRET measurement of Lingo-1 dimerization (Lingo-1-RLuc/Lingo-1-YFP) on live transfected HEK-293 cells
Assay type: cell-based
Details: for BRET signal obtained between Lingo-1-RLuc and Lingo-1-YFP: HEK-293, HA-tagged construct co-expressed (800 ng), constant donor/acceptor ratio, 48 h after transfection, p<0.001 vs control
Procedure: For the BRET experiments, the HEK-293 cells cultured in 6-well plates, pre-treated with collagen, are transiently transfected using the calcium phosphate technique. Briefly, the plasmid DNA is mixed into a phosphate buffer (2×BBS, composed in particular of 50 mM BES (Cat No. B4554, Sigma), 280 mM NaCl, 1.5 mM Na2HPO4, adjusted to pH 6.95) with calcium chloride (2.5 M). After incubation for 15 minutes, the precipitate obtained is applied to the cells for 24 hours. The cells are then rinsed and incubated for a further 24 hours in a culture medium without antibiotics.
The cells are resuspended in a physiological buffer (HBSS for Hank's Buffered Salt Solution (Cat No. 14025100, Gibco, composed in particular of calcium chloride, magnesium chloride, magnesium sulfate, potassium chloride, monobasic potassium phosphate, sodium bicarbonate, sodium chloride, anhydrous dibasic sodium phosphate)) 48 hours after transfection and distributed into 96-well plates (100 000 to 200 000 cells per well) or into 384-well plates (20 000 to 40 000 cells per well). The fluorescence and luminescence readings are carried out at ambient temperature on a microplate reader, Mithras LB 940 (Berthold). The yield from transfection of the Lingo-1-eYFP, Lingo-2-eYFP, Lingo-3-eYFP or Lingo-4-eYFP construct is evaluated by reading the fluorescence of the eYFP emitted at 530-540 nm after excitation at 480 nm. The yield from transfection of the Lingo-1-RLuc, Lingo-2-RLuc, Lingo-3-RLuc or Lingo-4-RLuc construct is evaluated by reading the luminescence (1 second) obtained immediately after the addition of the coelenterazine substrate (5 μM).
The measurement of the BRET signal is carried out immediately after the addition of coelenterazine. […] The energy transfer which takes place in the fusion protein between the Rluc and the eYFP causes the appearance of a fluorescence signal with a maximum emission at 530-540 nm, characteristic of the spectral properties of eYFP. […]
The BRET reading was carried out at ambient temperature on a microplate reader, Mithras LB 940 (Berthold), using the new BRET filters. […]

BRET signal obtained between Lingo-1-RLuc and Lingo-1-YFP	BRET signal obtained between the Lingo-1-RLuc and Lingo-1-YFP proteins (HEK-293, Lingo-1-RLuc 250 ng/Lingo-1-YFP 1500 ng, new filters, HA-tagged protein at 0-2600 ng plasmid)	Molecule
significantly decreased		Lingo-1-HA: whole human Lingo-1 protein (amino acids 1-620) tagged with HA (protein, left off: small tags and cut ends, whole human Lingo-1 protein (amino acids 1-620) tagged with HA) CPPRCECSAQDRAVLCHRKRFVAVPEGIPTETRLLDLGKNRIKTLNQDEFASFPHLEELELNENIVSAVEPGAFNNLFNLRTLGLRSNRLKLIPLGVFTGLSNLTKLDISENKIVILLDYMFQDLYNLKSLEVGDNDLVYISHRAFSGLNSLEQLTLEKCNLTSIPTEALSHLHGLIVLRLRHLNINAIRDYSFKRLYRLKVLEISHWPYLDTMTPNCLYGLNLTSLSITHCNLTAVPYLAVRHLVYLRFLNLSYNPISTIEGSMLHELLRLQEIQLVGGQLAVVEPYAFRGLNYLRVLNVSGNQLTTLEESVFHSVGNLETLILDSNPLACDCRLLWVFRRRWRLNFNRQQPTCATPEFVQGKEFKDFPDVLLPNYFTCRRARIRDRKAQQVFVDEGHTVQFVCRADGDPPPAILWLSPRKHLVSAKSNGRLTVFPDGTLEVRYAQVQDNGTYLCIAANAGGNDSMPAHLHVRSYSPDWPHQPNKTFAFISNQPGEGEANSTRATVPFPFDIKTLIIATTMGFISFLGVVLFCLVLLFLWSRGKGNTKHNIEIEYVPRKSDAGISSADAPRKFNMKMI
significantly decreased	significantly decreased	DN-Lingo-1-HA: HA-tagged dominant negative of Lingo-1 (amino acids 1-577, without cytoplasmic portion), known Lingo-1 inhibitor (protein, left off: small tags and cut ends) CPPRCECSAQDRAVLCHRKRFVAVPEGIPTETRLLDLGKNRIKTLNQDEFASFPHLEELELNENIVSAVEPGAFNNLFNLRTLGLRSNRLKLIPLGVFTGLSNLTKLDISENKIVILLDYMFQDLYNLKSLEVGDNDLVYISHRAFSGLNSLEQLTLEKCNLTSIPTEALSHLHGLIVLRLRHLNINAIRDYSFKRLYRLKVLEISHWPYLDTMTPNCLYGLNLTSLSITHCNLTAVPYLAVRHLVYLRFLNLSYNPISTIEGSMLHELLRLQEIQLVGGQLAVVEPYAFRGLNYLRVLNVSGNQLTTLEESVFHSVGNLETLILDSNPLACDCRLLWVFRRRWRLNFNRQQPTCATPEFVQGKEFKDFPDVLLPNYFTCRRARIRDRKAQQVFVDEGHTVQFVCRADGDPPPAILWLSPRKHLVSAKSNGRLTVFPDGTLEVRYAQVQDNGTYLCIAANAGGNDSMPAHLHVRSYSPDWPHQPNKTFAFISNQPGEGEANSTRATVPFPFDIKTLIIATTMGFISFLGVVLFCLV
